From US20130065278A1 (SPIBER TECHNOLOGIES, published 2013) come the findings set out here.

Experiment [1] addresses T1, NT-REP4-CT.
T1 construct: also called NT4RepCT; NT-REP4-CT fiber
T1 chain: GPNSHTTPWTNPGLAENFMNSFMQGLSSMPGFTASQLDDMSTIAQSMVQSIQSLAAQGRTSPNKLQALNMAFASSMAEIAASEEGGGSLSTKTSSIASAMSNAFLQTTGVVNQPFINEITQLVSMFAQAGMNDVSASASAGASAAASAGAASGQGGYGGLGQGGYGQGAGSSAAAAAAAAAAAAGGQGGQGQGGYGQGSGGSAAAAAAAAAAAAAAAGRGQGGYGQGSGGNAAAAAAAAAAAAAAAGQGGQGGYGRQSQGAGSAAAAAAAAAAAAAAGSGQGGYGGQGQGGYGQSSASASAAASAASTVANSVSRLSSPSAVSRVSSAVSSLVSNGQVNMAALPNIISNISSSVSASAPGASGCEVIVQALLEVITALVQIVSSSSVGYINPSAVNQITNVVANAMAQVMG
In words: capture of soluble protein on fiber at pH 6, release at pH 7, SDS-PAGE; 300 mM NaCl decreased capture. The method, then:
(§1) Fibers (˜0.5 cm long, ˜50 μg) of NT-REP₄-CT (SEQ ID NO 20), NT₂-REP₄-CT (SEQ ID NO 23) and REPO-CT (SEQ ID NO 2, control) were submerged in 100 μl solution of 5 mg/ml soluble NTHis (SEQ ID NO 32) or NT₂-Brichos (SEQ ID NO 34) at pH 8 for 10 minutes. The pH was decreased by addition of 400 μl sodium phosphate buffer (NaP) to pH 6 and incubated for 10 minutes to allow assembly of soluble NT to the fiber. The fibers were transferred to 500 μl of NaP at pH 6, and washed twice. Finally, the fibers were transferred to 500 μl of NaP at pH 7, and incubated 10 minutes to allow release of soluble NT. The same was done in the presence of 300 mM NaCl in all pH 6 NaP buffers. Samples from the different solutions were analysed on SDS-PAGE.

The target in experiment [2] is T2, NT2-REP4-CT.
T2 construct: also called NTNT-REP4-CT; HisNTNT4RepCT
T2 chain: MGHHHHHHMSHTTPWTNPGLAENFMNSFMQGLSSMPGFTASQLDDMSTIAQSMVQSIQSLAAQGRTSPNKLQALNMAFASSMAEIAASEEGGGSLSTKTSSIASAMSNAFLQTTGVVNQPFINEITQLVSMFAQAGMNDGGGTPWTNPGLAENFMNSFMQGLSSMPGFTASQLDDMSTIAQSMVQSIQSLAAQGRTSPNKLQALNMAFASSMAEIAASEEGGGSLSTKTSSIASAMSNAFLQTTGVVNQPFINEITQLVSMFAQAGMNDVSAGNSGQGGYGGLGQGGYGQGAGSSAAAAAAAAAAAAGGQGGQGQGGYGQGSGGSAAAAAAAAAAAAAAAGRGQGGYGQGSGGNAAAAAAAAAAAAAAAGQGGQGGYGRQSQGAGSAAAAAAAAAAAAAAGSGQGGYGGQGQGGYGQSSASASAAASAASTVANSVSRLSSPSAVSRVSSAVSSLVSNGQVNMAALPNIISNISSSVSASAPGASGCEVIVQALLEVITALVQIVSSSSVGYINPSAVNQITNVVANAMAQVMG
The experiment is described as above. The method, then: as §1

B1: NT2-Brichos (other)
chain: MGHHHHHHMSHTTPWTNPGLAENFMNSFMQGLSSMPGFTASQLDDMSTIAQSMVQSIQSLAAQGRTSPNKLQALNMAFASSMAEIAASEEGGGSLSTKTSSIASAMSNAFLQTTGVVNQPFINEITQLVSMFAQAGMNDGGGTPWTNPGLAENFMNSFMQGLSSMPGFTASQLDDMSTIAQSMVQSIQSLAAQGRTSPNKLQALNMAFASSMAEIAASEEGGGSLSTKTSSIASAMSNAFLQTTGVVNQPFINEITQLVSMFAQAGMNDVSAGNSEHLVTTATFSIGSTGLVVYDYQQLLIAYKPAPGTCCYIMKIAPESIPSLEALTRKVHNFQMECSLQAKPAVPTSKLGQAEGRDAGSAPSGGDPAFLGMAVSTLCGEVPLYYI
notes: also called NT-NT-Brichos; HisNTNTBrichos
On to B1, for which the binding result in experiment [1] and in experiment [2] was “binds” in each case.

B2: NTHis (other)
chain: MSHTTPWTNPGLAENFMNSFMQGLSSMPGFTASQLDDMSTIAQSMVQSIQSLAAQGRTSPNKLQALNMAFASSMAEIAASEEGGGSLSTKTSSIASAMSNAFLQTTGVVNQPFINEITQLVSMFAQAGMNDVSASASAGASAAASAGAAALEHHHHHH
notes: also called soluble NTHis; NT protein
B2: the binding result in experiment [1] and in experiment [2] was “binds” in each case.
